Consider ten sequences from the supplement of paper PMC5998384.

Series [1] deals with HeLa Kyoto. The experiment in a line: thermal stability score vs G1/S (z-score of summed log2 fold changes over temperatures); higher = more thermally stable than in G1/S.
Series [2] has as its system HeLa Kyoto. Put plainly: solubility in G1/S (NP-40 vs SDS abundance) (log2 ratio); higher = more soluble. The conditions noted are these: cell cycle stage: G1/S.
For series [3], the system named is HeLa Kyoto. Put plainly: melting temperature (median over replicates), in situ; higher = more thermally stable.
Series [4] concerns HeLa Kyoto. The experiment in a line: solubility change mitosis vs G1/S (difference of NP-40 vs SDS log2 ratios) (log2 ratio difference); higher = more soluble in mitosis.
The mark [5] stands for this setting: cell cycle stage: early G1 (4.5 h after nocodazole release).
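For melting temperature (median over replicates), in situ in this document: HeLa Kyoto cells synchronized by double thymidine or nocodazole block, proteins quantified by TMT10plex mass spectrometry, three independent biological replicates.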
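For solubility change mitosis vs G1/S (difference of NP-40 vs SDS log2 ratios) in this document: synchronized HeLa Kyoto cells (double thymidine block for G1/S, nocodazole release for mitosis), protein amounts in NP-40 versus SDS lysates quantified by mass spectrometry, three biological replicates.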
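For solubility in G1/S (NP-40 vs SDS abundance) in this document: HeLa Kyoto cells arrested at G1/S by double thymidine block, proteins quantified by TMT10plex mass spectrometry in mild NP-40 versus SDS extracts, three biological replicates.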
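For thermal stability score vs G1/S (z-score of summed log2 fold changes over temperatures) in this document: synchronized HeLa Kyoto cells, proteins quantified by TMT10plex mass spectrometry, three biological replicates, mitosis taken 0.5 h after nocodazole release, G1/S directly after double thymidine block.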

On to “MAVVAAAAGWLLRLRAAGAEGHWRRLPGAGLARGFLHPAATVEDAAQRRQVAHFTFQPDPEPREYGQTQKMNLFQSVTSALDNSLAKDPTAVIFGEDVAFGGVFRCTVGLRDKYGKDRVFNTPLCEQGIVGFGIGIAVTGATAIAEIQFADYIFPAFDQIVNEAAKYRYRSGDLFNCGSLTIRSPWGCVGHGALYHSQSPEAFFAHCPGIKVVIPRSPFQAKGLLLSCIEDKNPCIFFEPKILYRAAAEEVPIEPYNIPLSQAEVIQEGSDVTLVAWGTQVHVIREVASMAKEKLGVSCEVIDLRTIIPWDVDTICKSVIKTGRLLISHEAPLTGGFASEISSTVQEECFLNLEAPISRVCGYDTPFPHIFEPFYIPDKWKCYDALRKMINY [BCKDHB]”, for which the thermal stability score in series [1] (setting [5]) is -0.96; in series [1] (cell cycle stage: mitosis), -1.83. Besides, the “solubility in G1/S (log2)” value in series [2] was -0.09. Besides, the melting temperature in series [3] (cell cycle stage: G1/S) worked out at 52.6 °C; in series [3] (cell cycle stage: mitosis), 52 °C. For the same sequence, the “solubility change mitosis (log2)” value in series [4] is -0.179.
With “MAVYRAALGASLAAARLLPLGRCSPSPAPRSTLSGAAMEPAPRWLAGLRFDNRALRALPVEAPPPGPEGAPSAPRPVPGACFTRVQPTPLRQPRLVALSEPALALLGLGAPPAREAEAEAALFFSGNALLPGAEPAAHCYCGHQFGQFAGQLGDGAAMYLGEVCTATGERWELQLKGAGPTPFSRQADGRKVLRSSIREFLCSEAMFHLGVPTTRAGACVTSESTVVRDVFYDGNPKYEQCTVVLRVASTFIRFGSFEIFKSADEHTGRAGPSVGRNDIRVQLLDYVISSFYPEIQAAHASDSVQRNAAFFREVTRRTARMVAEWQCVGFCHGVLNTDNMSILGLTIDYGPFGFLDRYDPDHVCNASDNTGRYAYSKQPEVCRWNLRKLAEALQPELPLELGEAILAEEFDAEFQRHYLQKMRRKLGLVQVELEEDGALVSKLLETMHLTGADFTNTFYLLSSFPVELESPGLAEFLARLMEQCASLEELRLAFRPQMDPRQLSMMLMLAQSNPQLFALMGTRAGIARELERVEQQSRLEQLSAAELQSRNQGHWADWLQAYRARLDKDLEGAGDAAAWQAEHVRVMHANNPKYVLRNYIAQNAIEAAERGDFSEVRRVLKLLETPYHCEAGAATDAEATEADGADGRQRSYSSKPPLWAAELCVTUSS [SELO]”, the thermal stability score in series [1] (setting [5]) came to 3; in series [1] (cell cycle stage: mitosis), 3.57. The “solubility in G1/S (log2)” value in series [2] is -0.0646. Besides, the melting temperature stood at 47.8 °C in series [3] (cell cycle stage: G1/S) and 49.1 °C in series [3] (cell cycle stage: mitosis). The “solubility change mitosis (log2)” value in series [4] is -0.115.
Take “MAVYVGMLRLGRLCAGSSGVLGARAALSRSWQEARLQGVRFLSSREVDRMVSTPIGGLSYVQGCTKKHLNSKTVGQCLETTAQRVPEREALVVLHEDVRLTFAQLKEEVDKAASGLLSIGLCKGDRLGMWGPNSYAWVLMQLATAQAGIILVSVNPAYQAMELEYVLKKVGCKALVFPKQFKTQQYYNVLKQICPEVENAQPGALKSQRLPDLTTVISVDAPLPGTLLLDEVVAAGSTRQHLDQLQYNQQFLSCHDPINIQFTSGTTGSPKGATLSHYNIVNNSNILGERLKLHEKTPEQLRMILPNPLYHCLGSVAGTMMCLMYGATLILASPIFNGKKALEAISRERGTFLYGTPTMFVDILNQPDFSSYDISTMCGGVIAGSPAPPELIRAIINKINMKDLVVAYGTTENSPVTFAHFPEDTVEQKAESVGRIMPHTEARIMNMEAGTLAKLNTPGELCIRGYCVMLGYWGEPQKTEEAVDQDKWYWTGDVATMNEQGFCKIVGRSKDMIIRGGENIYPAELEDFFHTHPKVQEVQVVGVKDDRMGEEICACIRLKDGEETTVEEIKAFCKGKISHFKIPKYIVFVTNYPLTISGKIQKFKLREQMERHLNL [ACSF2]”: the values for the thermal stability score in series [1] (setting [5]) and in series [1] (cell cycle stage: mitosis) were 0.261 and 0.668, respectively. Also, in series [2], the “solubility in G1/S (log2)” value is 0.27. The results for the melting temperature in series [3] (cell cycle stage: G1/S) and in series [3] (cell cycle stage: mitosis) were 49.4 °C and 49.8 °C, respectively. The “solubility change mitosis (log2)” value in series [4] is -0.0628.
Regarding “MAWRRREASVGARGVLALALLALALCVPGARGRALEWFSAVVNIEYVDPQTNLTVWSVSESGRFGDSSPKEGAHGLVGVPWAPGGDLEGCAPDTRFFVPEPGGRGAAPWVALVARGGCTFKDKVLVAARRNASAVVLYNEERYGNITLPMSHAGTGNIVVIMISYPKGREILELVQKGIPVTMTIGVGTRHVQEFISGQSVVFVAIAFITMMIISLAWLIFYYIQRFLYTGSQIGSQSHRKETKKVIGQLLLHTVKHGEKGIDVDAENCAVCIENFKVKDIIRILPCKHIFHRICIDPWLLDHRTCPMCKLDVIKALGYWGEPGDVQEMPAPESPPGRDPAANLSLALPDDDGSDDSSPPSASPAESEPQCDPSFKGDAGENTALLEAGRSDSRHGGPIS [RNF149]”, the values for the thermal stability score in series [1] (setting [5]) and in series [1] (cell cycle stage: mitosis) were -0.202 and -3.79, respectively. The “solubility in G1/S (log2)” value in series [2] was -0.136. In addition, the melting temperature is 53.8 °C in series [3] (cell cycle stage: G1/S) and 54.1 °C in series [3] (cell cycle stage: mitosis). For the same sequence, the “solubility change mitosis (log2)” value in series [4] is -0.076.
“MCDFTEDQTAEFKEAFQLFDRTGDGKILYSQCGDVMRALGQNPTNAEVLKVLGNPKSDEMNVKVLDFEHFLPMLQTVAKNKDQGTYEDYVEGLRVFDKEGNGTVMGAEIRHVLVTLGEKMTEEEVEMLVAGHEDSNGCINYEAFVRHILSG [MYL6]”: the thermal stability score in series [1] (setting [5]) was -3.33; in series [1] (cell cycle stage: mitosis), -1.53. Moreover, in series [2], the “solubility in G1/S (log2)” value was -0.12. The figures for the melting temperature in series [3] (cell cycle stage: G1/S) and in series [3] (cell cycle stage: mitosis) were 51.8 °C and 51.7 °C, respectively. Further, in series [4], the “solubility change mitosis (log2)” value stood at 0.21.
Turning to “MCDIEEATNQLLDVNLHENQKSVQVTESDLGSESELLVTIGATVPTGFEQTAADEVREKLGSSCKISRDRGKIYFVISVESLAQVHCLRSVDNLFVVVQEFQDYQFKQTKEEVLKDFEDLAGKLPWSNPLKVWKINASFKKKKAKRKKINQNSSKEKINNGQEVKIDQRNVKKEFTSHALDSHILDYYENPAIKEDVSTLIGDDLASCKDETDESSKEETEPQVLKFRVTCNRAGEKHCFTSNEAARDFGGAVQDYFKWKADMTNFDVEVLLNIHDNEVIVGIALTEESLHRRNITHFGPTTLRSTLAYGMLRLCDPLPYDIIVDPMCGTGAIPIEGATEWSDCFHIAGDNNPLAVNRAANNIASLLTKSQIKEGKPSWGLPIDAVQWDICNLPLRTGSVDIIVTDLPFGKRMGSKKRNWNLYPACLREMSRVCTPTTGRAVLLTQDTKCFTKALSGMRHVWRKVDTVWVNVGGLRAAVYVLIRTPQAFVHPSEQDGERGTLWQCKE [THUMPD3]”, the thermal stability score in series [1] (setting [5]) was -1; in series [1] (cell cycle stage: mitosis) it was -2.07. The “solubility in G1/S (log2)” value in series [2] worked out at 0.109. Besides, the melting temperature in series [3] (cell cycle stage: G1/S) stood at 52.9 °C; in series [3] (cell cycle stage: mitosis), 53 °C. Besides, the “solubility change mitosis (log2)” value in series [4] was -0.147.
Turning to “MCGDCVEKEYPNRGNTCLENGSFLLNFTGCAVCSKRDFMLITNKSLKEEDGEEIVTYDHLCKNCHHVIARHEYTFSIMDEFQEYTMLCLLCGKAEDTISILPDDPRQMTLLF [CHURC1]”, the results for the thermal stability score in series [1] (setting [5]) and in series [1] (cell cycle stage: mitosis) were -2.8 and -3.3, respectively. Besides, the “solubility in G1/S (log2)” value in series [2] was 0.0387. For the same sequence, the results for the melting temperature in series [3] (cell cycle stage: G1/S) and in series [3] (cell cycle stage: mitosis) were 51.5 °C and 52.5 °C, respectively. For the same sequence, the “solubility change mitosis (log2)” value in series [4] is -0.361.
In the case of “MCGNTMSVPLLTDAATVSGAERETAAVIFLHGLGDTGHSWADALSTIRLPHVKYICPHAPRIPVTLNMKMVMPSWFDLMGLSPDAPEDEAGIKKAAENIKALIEHEMKNGIPANRIVLGGFSQGGALSLYTALTCPHPLAGIVALSCWLPLHRAFPQAANGSAKDLAILQCHGELDPMVPVRFGALTAEKLRSVVTPARVQFKTYPGVMHSSCPQEMAAVKEFLEKLLPPV [LYPLA2]”, the thermal stability score in series [1] (setting [5]) was -1.02; in series [1] (cell cycle stage: mitosis) it was 0.00875. Besides, the “solubility in G1/S (log2)” value in series [2] amounted to 0.543. Moreover, the melting temperature worked out at 53.3 °C in series [3] (cell cycle stage: G1/S) and 53 °C in series [3] (cell cycle stage: mitosis). The “solubility change mitosis (log2)” value in series [4] was 0.185.
On to “MCNTPTYCDLGKAAKDVFNKGYGFGMVKIDLKTKSCSGVEFSTSGHAYTDTGKASGNLETKYKVCNYGLTFTQKWNTDNTLGTEISWENKLAEGLKLTLDTIFVPNTGKKSGKLKASYKRDCFSVGSNVDIDFSGPTIYGWAVLAFEGWLAGYQMSFDTAKSKLSQNNFALGYKAADFQLHTHVNDGTEFGGSIYQKVNEKIETSINLAWTAGSNNTRFGIAAKYMLDCRTSLSAKVNNASLIGLGYTQTLRPGVKLTLSALIDGKNFSAGGHKVGLGFELEA [VDAC3]”, for which the figures for the thermal stability score in series [1] (setting [5]) and in series [1] (cell cycle stage: mitosis) were -1.43 and -4.76, respectively. The “solubility in G1/S (log2)” value in series [2] was -0.0264. Also, the melting temperature in series [3] (cell cycle stage: G1/S) was determined as 61.6 °C; in series [3] (cell cycle stage: mitosis), 59.9 °C. Further, the “solubility change mitosis (log2)” value in series [4] was -0.0561.
Turning to “MDAAEVEFLAEKELVTIIPNFSLDKIYLIGGDLGPFNPGLPVEVPLWLAINLKQRQKCRLLPPEWMDVEKLEKMRDHERKEETFTPMPSPYYMELTKLLLNHASDNIPKADEIRTLVKDMWDTRIAKLRVSADSFVRQQEAHAKLDNLTLMEINTSGTFLTQALNHMYKLRTNLQPLESTQSQDF [GINS2]”, the thermal stability score in series [1] (setting [5]) was -1.69; in series [1] (cell cycle stage: mitosis), -2.97. In addition, in series [2], the “solubility in G1/S (log2)” value is 0.24. Besides, the melting temperature in series [3] (cell cycle stage: G1/S) came out at 50.9 °C; in series [3] (cell cycle stage: mitosis) it was 52.4 °C. The “solubility change mitosis (log2)” value in series [4] was 0.34.
